# Assay: yeast display, Sf9 membrane polyspecificity reagent, FACS + sequencing; frameworks hold sequencing errors
# In short: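 After 36–48 hours of galactose induction, yeast (Saccharomyces cerevisiae BJ5465) displaying a synthetic nanobody library were stained at 4 °C for 1 hour with 10% biotinylated, detergent-solubilized Sf9 membrane reagent. Streptavidin microbeads enriched the stained cells before FACS sorting into low and high (top ~1%) gates on anti-HA and streptavidin fluorescence. Each clone's polyreactivity label reflects its gate of origin.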
row,Sequence,polyreactivity (PSR sort gate)
1,QVQLVESGGGLVQAGGSLRLSCAASGSIFPYNVMGWYRQAPGKERELVAAISTRGGRTYYADSVKGRFTISRDNAKNTVYLQMNSLKPEDTAVYYCNTVVLRYLYNYWGQGTQVTVSS,high polyreactivity
2,QVQLVESGGGLVQAGGSLRLSCAASGSIFTHNAMGCYRQAPGKERELVAAMSSGGSTNDADSVKGRFTISRDNAKNTVYLKMNSLTPEDTAVYYCAKSIDGWYWRRRRYDYWGQGTQVTVSS,low polyreactivity
3,QVQLVESGGGLVQAGGSLRLSCPASGNIFLSYAMGWYRQAPGKERELVAGISASGGRTYYADSVKGRFTISRDNAKNTVYLQMNSLKPEDTAVYYCATRGQTRTTTRYYSWGQGTQVTVSS,high polyreactivity
4,QVQLVESGGGLVQAGGSLRLSSAASGLNFQRNTMGWSRQAPVKERELVAAISRSGGSTYYADSVKGRFTISRDNAKNTVYLQMNSLKPEDTAVYYCAALIFRHRGKDDDYWGQGTQVTVSS,high polyreactivity
5,QVQLVESGGGLVQAGGSLRLTCAASGRTFRQYAMGWYRQAPGKERELVAAIRTNGGRTYYADSVKGRFTISRDYAKNTVYLQFNSLKPEDTAVYYCAVYAVVQGVLFDYWGQGTQVTVSS,high polyreactivity
6,QVQLVESGGGLVQAGGSLRLSCAASGSTFDWYVMGWDRQAPGKERELVADITWSGDSTYYADSVKGRFTISRDNAKNTVYLQMNSLKPEDTAVYYCAADAYTLFYFYVYEYNYWGQGTQVTVSS,high polyreactivity
7,QVQLVESGGGLVQAGGSLRLSWAASGITFRKNAMGWYRQAPGKERQLVATITRRGGSTFYADSVKGRFTISRDNANNTVYLQFKSLKPVDSAVYYFAADYATRDGDYESWGQGTQVTVSS,high polyreactivity
8,QVQLVESGGGLVQAGGSLRLSCAASGSIFLIYAMGWYRQAPGKERELVAAISSGGSTYYADSVKGGFTISRDNAKNTVYLQMNSLKPEDTAVYYCATYSTSVGYHLYYWGQGTQVTVSS,low polyreactivity
9,QVQLVESGGGLVQAGGSLRLSCAASGSTFDSYAMGWYRQAPGKEGELVAAITGGGDTNYADSVKGRFTISRDNAKNTVYLQMNSLKPEDTAVYYCAAYQRRGNYQMDLWGQGTQVTVSS,low polyreactivity
10,QVQLVESGGGLVQAGGSLRLSCAASGRIFYGYAMGWYRQAPGKERELVASISRRGSSTYYADSVKGRFTISRDNAKNTVYLQMNSLKPEDTAVYYCAAGYYPFNYWGQGTQLTVSS,high polyreactivity
11,QVQLVESGGGLVQAGGSLRLSCAASGFTFVYYAMGWYRQAPGKERELVAAISRGGSTYYADSVKGRFTISRDNAKNTVYLQMNSLKPEDTAVYYCNAKKSGHYVSYPAYDYWGQGTQVTVSS,low polyreactivity
12,QVQLVESGGGLVQAGGSLRLSCAASGSIFEFNTMGWYRQAPGKERELVAAISSADTTNYADSVKGRFTISRDNAKNTVYLQMNSLKPEDTAVYYCNKELHLSATLRVLGFDYWGQGTQVTVSS,low polyreactivity
13,QVQLVESGAGLVQEVGSLRLSCAASGFTFGVNAMGSSRQAPGKERQFVASIRVRGCSTYYADSEKGRFTISRDNAKNTVYLQMNSLKPEDTAVYFCNAEVYVSSYATEMDYWGQGTQVTVSS,low polyreactivity
14,QVQLVESGGGLVQAGGSLRLSCAPSGFIYHWNAMGWYRQAPGKERELLAAITWRGTNTYYADSVKGRFTISRDNAKNTVYLQMNRLKPEDTAVYYCAARYVTYYGTFDYWGLGTQVTVSS,low polyreactivity
15,QVQIVESGGGLVQAGGSLRLSCAASGITFTVYAMGWYRQAPGKVRELVAAINSGSSTNYADSVKGRFTISRDNAKNTVYLQMNSLNPEDTAVYYCAASYRKLPDKKRYGYWGQGTQVTVSS,high polyreactivity
16,QVQLVESGGGLVQAGGSLRLSCAASGSIFPIYAMGWYRQAPGKERELVAAINRSGGSTYYADSGKGRFTISRDHAKTTVYLQMNSLKPEETAVYDCNADYGYHNQLFRGYYGWSSDHWGQGTQVTVSS,low polyreactivity

row,Sequence,polyreactivity (PSR sort gate)
1,QVQLVESGGGLVQAGGSLRLSCADSGIIFRYYAMGWYRQAPGKERELVADISRRGGSTYYADSVKGRFTISRDNAKNTVYLQMNSLKPEDTAVYYCAAKYRVYNYSPWGPYNYWGQVTQVTVSS,high polyreactivity
2,QVQLVESGGGLVQAGRSLRLSCAASGSIFTYYAMGWYRQAPGKERELVAAINWSDSSTYNADSVKGRFTISRDNAKNTVYLQMNSLKPEDTAVYDCAATNYADGDYWGQGTQVTVSS,low polyreactivity
3,QVQLVESGGGLVQAGGSLRLSCAASGIIFYLYAMGWYRQAPGKERELVAAISGSGGNTYYADSVKGRFTISRDNAKNTVYLQMNSLKPEDTAVYYCAVAVFVWYAVIPYAEYDYWGQGTQVTVSS,high polyreactivity
4,QVQLVESGGGLVQAGGSLRLSCAASGSIFVLYAMGWYRQAPGKERELVAAINYDGASTYYADSVKGRFTISRDNAKNTVYLQMNSLKPEDTAVYYCAARWQFNIDVQLYLFEYWGQGTEVTVSS,low polyreactivity
5,QVQLVESGGGLVQAGGTLRLSCAASGSIFTHYAMGWYRQAPGKERELVAAISRRGGSTYYADSVKGRFTNSRDNAKNTVYLQMNSLKPEDSAVYYCAKSPDTAKEYDYWGQGTQVTVSS,high polyreactivity
6,QVQLVESGGGLVQAGGSLRLSCAASGIIFYDYAMGWYRQAPGKERELVAAITSGGSTNYADSVKGRFTISRDNAKNTVYLQMNSLKPEDTAVYYCAATYWSWIPLRFYRGQGTQVTVSS,low polyreactivity
7,QVQLVESGGGLVQAGGSLRLSCAASGITFKYYTMGWYRQAPGKERELVASINNDGSTYYADSVKGRFTISRDNAKNTVYFQMNSLKPEDTAVYYCAASGYGWFWYDYWGHGTQVTVSS,high polyreactivity
8,QVQLVESGGGLVQAGGSLRLSCAASGLIFPPNVMGWYRQAPWKERELVAAITSSGSTKYADSVKGRFTISRDNAKNTVYLQMNSLKPEDTAVYYCARDQTWSYQPWYYLSYPQYEYWGQGTQVTVSS,low polyreactivity
9,QDQLVQSGGGLVQAGGSLRLSCAASGRTFGKYAMGWYRQAPGKERELVAAITGGGGTKYADSVKGRFTISGDNAKNSVYLQMNSLKPEDTAVYYCAAASGSRRHGYWGQGTQVTVSS,high polyreactivity
10,QVQLVESGGGLVQAGGSLRLSCAASGFIFSANAMGWYRQAPGKERELVAAISSRGTSTYYADSVKGRFTISRDYAKNTVYLQMNSLKPEDTGVYFCAADYYQAGTYVWMDYWGQGTQVTVSS,high polyreactivity
11,QVQLVESGGGLVQAGGSLRISCAASGNTFDYYTMGWYRQAPGKERDLVASIDWSTTTTYYADSVKGRFTISRDNAKTTVYLQMKSLKPEDTAVYYCNTVYDFYHLGLYSGFRYHYWGQGTQVTVSS,low polyreactivity
12,QVQLVESGGGLVQAGGSLRLSCAASGRTFGRYVMGWYRQAPGKERDLVAAITGVGSTKYADSVKGRFTISRDNAKNTVYLQMNSLKPEDTAVYYCAKRYLYDRRHAEYWAANDYWGQGTQVTVSS,low polyreactivity
13,QVQLVESGGGLVQAGGSLRLSCAASGSIFFNYAMGWYRKAPGKERELVATITSGGSTYYADSVKGRFTISRDNAKNTVYLQMNSLKPEDTAVYYCAVDEYFAFDYWGQGTQVTVSS,low polyreactivity
14,QGQLVESGGGLVQARGSLRLSCAAYGRTFYGNVMGWYRQAPGNERELDATISVSSGSTYYADSVKGRFTISRDTEKNTVYLLMNSLKPEDSAVYYCNADDTDYATGGGNYWGQGTQVTVSS,low polyreactivity
15,QVQLVESGGGLVQAGGSLRLSCAASGSIFAVYAMGWYRQAPGNERELVAVITRSGGSTYYADSVKGRFTISRDNAKNTVYLQMNSLKPEDTAVYYCAARTGYGYTRYEYWGQGTQVTVSS,high polyreactivity

# Reference: the nanobody polyreactivity screen of Harvey et al. (2022)
